According to the supplement of paper PMC9170038:

Tested on: K4 kissing-loop RNA reporter
Experiment: apparent KD of K4 kissing-loop reporter; higher = weaker reporter binding
Conditions: Eterna round: R107
Description: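 RNA-MaP round R107: designed RNA switches with theophylline, tryptophan, arginine or FMN aptamers are transcribed on-chip within common flanks. They are titrated with a labelled K4 kissing-loop RNA reporter in RNA-MaP buffer (100 mM Tris pH 7.5, 80 mM KCl, 4 mM MgCl2), without ligand or with the indicated ligand. Median apparent KD per design.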

[1] = input ligand: theophylline 20 uM
[2] = input ligand: tryptophan 2.4 mM
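Also: bound reporter read as fluorescence of individual clusters on recovered sequencing chips by microscopy, with normalized cluster intensities fitted with a binding model.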

Sequence | apparent KD of K4 kissing-loop reporter (input ligand: FMN 200 uM) | apparent KD of K4 kissing-loop reporter (input ligand: arginine 13.2 mM) | apparent KD of K4 kissing-loop reporter (input ligand: none) | apparent KD of K4 kissing-loop reporter [1] | apparent KD of K4 kissing-loop reporter [2]
AAUAUAUAGUGAAGGAGCGCGUAUUGCAGUGAUGUUGCUAAGUUAUUAUUAUCUAUUUUUACGCAGGUAGGUCGCACUAUAUAUA [JR_SSArginiB_Sub014] | 213 nM | 231 nM | 224 nM | 245 nM | 193 nM
AAUCAAUACAGAAGGAGCGUGACAAUUACUAUUGAAUUAGGUGCUAGUGAUGUUAGCAUUACACAGGUAGGUCGCUGUACAUUUA [JR_SSArginiB_Sub011] | 81.4 nM | 85.5 nM | 87.5 nM | 89 nM | 78.3 nM
AAUGAUCGUAUGGCGAGGUACUCGUGUUCGAAGGAUAUUAAUAGAAUAAGAAGGUCGAAAUCGUGUCUGGAAGUGAUGUUUCCAU [theeternabot_sameState_KL_FMN_A_32] | 111 nM | 106 nM | 106 nM | 123 nM | 89.6 nM
AAUGCAUAGUGAAGGAGCGCGUAUAGCAGUGAUGUUGCUUACUUAUUAUUAUAUUAAUUGACGCAGGUAGGUCGCACUUUGCAUA [JR_ExcArginiB_Sub022] | 196 nM | 144 nM | 196 nM | 181 nM | 156 nM
AAUUCAAACUGAAGGAGCGAGCAAAUCGGAGUGAUGUUCCAAGCGAGUGAUGUUCGCAUAGCUCAGGUAGGUCGCAGUUUGGAUA [Same State Arginie B GF 13] | 120 nM | 95.2 nM | 107 nM | 101 nM | 101 nM
AAUUCCUGUUAUGAUACCAGAAAUCACAGCAACCUGCCUACCUAGUGAUGUUAGGAGAAUUUCCCUUGGCAGCAUCGACUGAAGG [theeternabot_sameState_KL_Theo_B_38] | 147 nM | 173 nM | 145 nM | 151 nM | 124 nM
AAUUUAUUAACUGAUACCAGACUUUAAUUUAUAUAUAUGUCUAGUGAUGUUAAACAUAUUGUCCCUUGGCAGCAGUAUUUAUUAA [JR_SSTheophyB_Sub020] | 761 nM | 399 nM | 755 nM | 768 nM | 536 nM
ACACGGAGAGGCAUAACGUGCAUCUUCAGCGAGGAUAUCCAUUACAGGAGAAGGCGCUCCGGAGUGAUGUUCCGGCAAAAGAUAC [Quatatte] | 83.5 nM | 151 nM | 102 nM | 146 nM | 91.5 nM
ACGAAGGAUGGAAGGAGCGCUCGUCAGUCCUGCGAGUGAUGUUCGUGGGUAAAUAUUCGCGAGCAGGUAGGUCGCCAUCUUGAGC [Soregeor] | 144 nM | 115 nM | 144 nM | 134 nM | 129 nM
ACGACGCAUAGUGAUACCAGCACAAUAUGAGUGAUGUUCAACAUAUAAAUGUAAUAAUUAUGCCCUUGGCAGCACUAUGCGUCAG [KL-SSTheoB1] | 658 nM | 660 nM | 793 nM | 707 nM | 591 nM
ACGACGGCAGCUCAGUGAUGUUGGGCAUUACGAGGACCGGUACGGCCGCCACUCGCUGCUUUGAUCCGUGGAUGAACCUCAGCAU [theeternabot_sameState_KL_Trp_A_13] | 576 nM | 464 nM | 601 nM | 734 nM | 402 nM
ACGCGCGCGAGUGAUGUUCGGAGCGGCUGGCAGGAUAUGUAGCAAUGCAGAAGGGUCGUGGCGGGCGCGGCGAAAGCCGCGCCCG [#2 Exclusion - FMN A Attempt #6 (HarryS)] | 150 nM | 282 nM | 444 nM | 622 nM | 293 nM
ACGCUUGAAUAACAAGCGAAAUAAAAUUCGCGAGGACCGGUACGGCCGCCACUCGCUAACUGCGAGUGAUGUUCGAUAAUAAAAU [Mat - Mod of OpenEnded 3 - D16] | 139 nM | 80.2 nM | 129 nM | 208 nM | 69.1 nM
ACGGAUUCGAAUACCGAAUGAAAUAGGGAUACCAGCACGUGAACGUGCCCUUGGCAGCCCAGCCCAGUGAUGUUGGGCCCAUGGC [Biso] | 173 nM | 185 nM | 179 nM | 212 nM | 204 nM
ACGUAGUUCUAGGAUACCAGCCAAGGUGCCAGGACAAAAGUCCUGGCAGUCAGUGAUGUUGGCCCUUGGCAGCCUAGAACUACGA [Omei KL Theo B Exc B v8] | 176 nM | 196 nM | 215 nM | 209 nM | 218 nM
ACGUAUAUCAGAGGAUAUCGUAUUAAUAUUUUAUCUAUAUAGUUUUGCAGUGAUGUUGCAAUUAUUCGAGAAGGCUGAUUUACGA [JR_SSFMNB_Sub024] | 86.1 nM | 95.6 nM | 75.3 nM | 89.2 nM | 69.2 nM

Sequence | apparent KD of K4 kissing-loop reporter (input ligand: FMN 200 uM) | apparent KD of K4 kissing-loop reporter (input ligand: arginine 13.2 mM) | apparent KD of K4 kissing-loop reporter (input ligand: none) | apparent KD of K4 kissing-loop reporter [1] | apparent KD of K4 kissing-loop reporter [2]
ACGUGAAGCGACUCCUAGUUAAACCGGGAAGGAGCGCGGAUAACCGCAGGUAGGUCGCCCGGAAGCCGGACCAGUGAUGUUGGUC [Exclusion Arginine A Gf 26] | 263 nM | 191 nM | 207 nM | 217 nM | 198 nM
ACGUGCACCAGUGAUGUUGGAAAAUAUGAAGGAGCGUGCGAAAGCACAGGUAGGUCGCAUAAUAGCACGAGCCACGAAAGUGGCA [#SwitchBubble 6 #K4Early #Sliding] | 131 nM | 159 nM | 134 nM | 132 nM | 102 nM
ACUAGUUAAUCGGCCGCCACUUCUAGUGAUGUUAGAAUUAUCCAGAUUAUCAGCGUAGCACAUUGAAGGACCGGGAUAAGGUGGU [theeternabot_exclusion_KL_Trp_B_2] | 275 nM | 236 nM | 269 nM | 273 nM | 261 nM
ACUGAAAGAUCUGAUACCAGACUUUUUGUAUUUAUUAAAACUAGUGAUGUUAGUUUAUCAGUCCCUUGGCAGCAGUUACUACAGA [JR_Nu_ExcTheophyB_Sub024] | 91 nM | 106 nM | 105 nM | 103 nM | 95.4 nM
ACUGCCAUUGCGGCCGCCACUAUCUCACUUUGCGAAUCUGCACCGACUGAGUGAUGUUCGGUAAAUAGGACCGGGCAAUGGGCCG [theeternabot_sameState_KL_Trp_B_26] | 611 nM | 479 nM | 633 nM | 281 nM | 657 nM
ACUGGGUUGACGAAAGUCAACAAAAGAGAAGGAGCGCACGAAAGUGCAGGUAGGUCGCUCAUUCCAGUGAUGUUGGAUCACCAGA [#SwitchBubble 18 #K4Late] | 242 nM | 366 nM | 453 nM | 279 nM | 199 nM
ACUUGAGCACAAAGCACACCAAGCAGUAGGUAGGAUAUCCGGCUUAGGAGAAGGACCAUGCAGUGAUGUUGCAUGCUCCUCCAUG [Onraordi] | 267 nM | 94.7 nM | 101 nM | 102 nM | 93 nM
AGAAACUUGUAUGUCGAGUGUGCGCGCGAUACCAGCCAAAUGGAUGGCCCUUGGCAGCGCUGCGAGUGAUGUUCGCCCGCUUGAC [#18 K4 Theophylline A Exclusion] | 210 nM | 244 nM | 203 nM | 192 nM | 174 nM
AGAACUGUCUGAGAUACCAGCUAAGGAGUGAUGUUCCUAGCUCCACGAAAGUGGAGCCAUAGCCCUUGGCAGCUCAGACAGUUCA [Omei KL Theo B SS A v6] | 866 nM | 588 nM | 1050 nM | 584 nM | 747 nM
AGACCACAAAGUGGUCAGUGUUCGCGGCAGCGAGGACCGGUACGGCCGCCACUCGCGAGUGAUGUUCGCGAGAGCCGCGAACACA [Omei KL Tryp A Exc A v8] | 82.7 nM | 80.9 nM | 82.6 nM | 93.8 nM | 99.6 nM
AGACCACAAAGUGGUCAGUGUUCGCUGCAGCGAGGACCGGUACGGCCGCCACUCGCGAGUGAUGUUCGCGAGCGCAGCGAACACA [Omei KL Tryp A Exc A v5] | 95.9 nM | 68.1 nM | 92.6 nM | 75.6 nM | 114 nM
AGACGCCAGUCGGCCGCCACUCACAGCAGUGAUGUUGCUGAAAAUCUAGAAGAGUGAUGUUCUUAGAGGACCGGGACUCCAGUCG [Same State Tryptophan B GF 6] | 162 nM | 153 nM | 169 nM | 141 nM | 172 nM
AGACUACCACACUGUCAAUAGACAGUGAGCUAGGAUAUGCUGAUAAGCAGAAGGAGUGAUGUUCCUUGGUAGUCAAUAAAAUAAU [FmnAX 13 G29+U67] | 366 nM | 271 nM | 285 nM | 319 nM | 280 nM
AGACUACCACACUGUCAAUAGACAGUGUACUAGGAUAUGCUGAUAAGCAGAAGGAGUGAUGUUCCGAGGUAGUCAAUAAAAUAAU [FmnAX 13 U28+G66] | 326 nM | 258 nM | 253 nM | 330 nM | 242 nM
AGAGUUAUGCGAGGAUAUGCGGUUAGUACUCAAAGAGUACUAACGCAGAGUGAUGUUCUGUGAAACACAGAAGGCGCAUAACUCA [Omei KL FMN B SS B v1] | 854 nM | 160 nM | 475 nM | 448 nM | 441 nM
